Results reported in US20140219913A1.

Biological target: TNF-alpha
Assay: cell-based or functional assay

N-terminal L929 Assay (EC50, pM): 1.5 pM
Substance: Etanercept (Fc fusion)
